In paper PMC4716839:

Experiments:
[1] = test system: Dna2 D278A (nuclease-dead) (Mus musculus); assay: EMSA; settings: Kd only in figure; EMSA: 20 mM Tris-HCl pH 8.0, 80 mM NaCl, 0.3 mM TCEP, 0.2 mg/mL BSA, 2% glycerol, on ice 30 min, 0.075 or 0.3 nM 32P-DNA; 4% native PAGE, 1x TB, 4 C; scale: affinity relative to 5'(dT)24
[2] = test system: Dna2 D278A (nuclease-dead) (Mus musculus); assay: bead pull-down; settings: DNA preloaded with Rpa, EMSA: 20 mM Tris-HCl pH 8.0, 80 mM NaCl, 0.3 mM TCEP, 0.2 mg/mL BSA, 2% glycerol, on ice 30 min, 0.075 or 0.3 nM 32P-DNA, 4% native PAGE, 1x TB, 4 C, scale: % Dna2 loading relative to reaction lacking Rpa

Substance | binding signal [1] | further results
5'(dT)8 overhang DNA | 0.01 | –
3'-(dT)26 overhang DNA, biotinylated | – | binding signal ([2]; negligible loading): 3
5'-(dT)26 overhang DNA, biotinylated | – | binding signal [2]: 45
5'(dT)6 overhang DNA | 0.01 | –
